Experimental data published in patent publication US20250145718A1 (ABL BIO, published 2025).
Read-outs that look alike come from different tables or passages of the source.

Tests used:
[1] = target: T1, human PD-L1-Fc protein (Sinobio, 10084-H02H) (human, UniProt Q9NZQ7 19-239); experiment: DACE (dual antigen capture ELISA): plate coated with human PD-L1-Fc, then bispecific, then human 4-1BB-His, anti-His HRP
T1 construct: Purchased reagent; not shown: Fc part of the purchased fusion
Method: (§1) Briefly, microtiter plates were coated with 100 ng/well of human PD-L1-Fc protein (Sinobio, 10084-H02H) in PBS at 4° C. overnight, then blocked with 100 μl/well of 1% BSA for 2 hours at 37° C. Three-fold dilutions of each of the BsAbs starting from 100 nM were added to each well and incubated for 2 hours at 37° C. The plates were washed with PBS/Tween and then incubate with 50 ng/well of human 4-1BB-His protein (Sinobio, 16498-H08H) in 1% BSA for 1 hour at 37° C. The plates were washed with PBS/Tween and then incubate with Anti-His HRP (Roche, Cat: 11965085001) for 1 hour at 37° C. After washing, the plates were developed with TMB substrate and analyzed by spectrophotometer at OD 450-650 nm.

[2] = target: T2, 4-1BB expressed on Jurkat cells (4-1BB-Jurkat cells; GloResponse NFkB-luc2/4-1BB Jurkat cell line) (human, UniProt Q07011 24-255); experiment: cell-based or functional assay
[3] = target: T1, human PD-L1-Fc protein (Sinobio, …); experiment: DACE after incubation in human serum for 3, 7, 14 days at 37 C
Method: as §1, with “Binding activity was analyzed to DACE (Dual antigen captured ELISA) test. Briefly,” for “Briefly,”

[4] = target: T3, human 4-1BB-His protein (Sinobio, 16498-H08H) (human, UniProt Q07011 24-186); experiment: DACE (dual antigen capture ELISA): bispecific captured on coated human PD-L1-Fc binds soluble human 4-1BB-His, detected with anti-His HRP
T3 construct: Purchased reagent; not shown: His tag of the purchased protein
Method: as §1

[5] = target: T1, human PD-L1-Fc protein (Sinobio, …); experiment: DACE (dual antigen capture ELISA): bispecific titrated on coated human PD-L1-Fc; signal also needs binding of human 4-1BB-His (anti-His HRP)
Method: as §1

[6] = target: T3, human 4-1BB-His protein (Sinobio, …); experiment: DACE after incubation in human serum for 3, 7, 14 days at 37 C
Method: as §1, with “Binding activity was analyzed to DACE (Dual antigen captured ELISA) test. Briefly,” for “Briefly,”

[7] = target: T2, 4-1BB expressed on Jurkat cells …; experiment: cell-based or functional assay; remark: listed apart in the source
[8] = target: T1, human PD-L1-Fc protein (Sinobio, …); experiment: DACE after incubation in human serum at 37 C for 0, 3, 7 or 14 days: bispecific titrated on coated human PD-L1-Fc; signal also needs binding of human 4-1BB-His (anti-His HRP)
Method: as §1, with “Binding activity was analyzed to DACE (Dual antigen captured ELISA) test. Briefly,” for “Briefly,”

human 4-1BB-Fc protein = target: T4, human 4-1BB-Fc protein (human, UniProt Q07011 24-186, limits assumed); experiment: ELISA, plate coated with human 4-1BB-Fc, detection with anti-human IgG-HRP, OD 450-630 nm
T4 construct: not shown: Fc part of the fusion
Method: To evaluate the antigen binding activity, the antibody candidates were subjected to ELISA test. Briefly, microtiter plates were coated with human 4-1BB-Fc protein at 0.1 μg/ml in PBS, 100 μl/well at 4° C. overnight, then blocked with 100 μl/well of 5% BSA. […] The plates were washed with PBS/Tween and then incubate with goat-anti-human IgG antibody conjugated with Horse Radish Peroxidase (HRP) for 1 hour at RT. After washing, the plates were developed with TMB substrate and analyzed by spectrophotometer at OD 450-630 nm.

[9] = target: T2, 4-1BB expressed on Jurkat cells …; experiment: cell-based or functional assay; remark: listed apart in the source
[10] = target: T5, 4-1BB (Octet Red 96 kinetics, Example 2.2(3)) (human, UniProt Q07011 24-186, limits assumed); experiment: BLI (Octet Red 96), affinity ranking
T5 construct: also called human 4-1BB
Excerpt: To explore the binding kinetics of the humanized antibody, this example performed the affinity ranking by using Octet Red 96.

[11] = target: PD-L1 (Biacore kinetics, Example 1.5) (UniProt Q9NZQ7 19-238, limits assumed); experiment: SPR (Biacore), affinity ranking
Sequence of PD-L1 (Biacore kinetics, Example 1.5) (Q9NZQ7 19-238 limits assumed): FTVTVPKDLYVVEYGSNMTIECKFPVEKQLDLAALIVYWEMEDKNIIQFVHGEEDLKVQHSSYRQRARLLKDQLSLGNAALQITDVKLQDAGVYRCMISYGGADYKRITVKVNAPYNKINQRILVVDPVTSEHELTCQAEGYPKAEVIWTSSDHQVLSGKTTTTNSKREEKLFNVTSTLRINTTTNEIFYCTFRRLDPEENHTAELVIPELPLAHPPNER

T2 sequence (Q07011 24-255 limits assumed): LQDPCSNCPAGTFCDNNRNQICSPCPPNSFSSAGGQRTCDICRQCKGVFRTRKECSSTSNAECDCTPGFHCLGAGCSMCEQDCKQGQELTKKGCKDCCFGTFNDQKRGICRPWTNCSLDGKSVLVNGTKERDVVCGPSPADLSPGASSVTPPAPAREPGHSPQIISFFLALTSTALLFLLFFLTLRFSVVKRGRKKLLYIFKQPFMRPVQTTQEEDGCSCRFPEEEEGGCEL
T1 sequence (Q9NZQ7 19-239): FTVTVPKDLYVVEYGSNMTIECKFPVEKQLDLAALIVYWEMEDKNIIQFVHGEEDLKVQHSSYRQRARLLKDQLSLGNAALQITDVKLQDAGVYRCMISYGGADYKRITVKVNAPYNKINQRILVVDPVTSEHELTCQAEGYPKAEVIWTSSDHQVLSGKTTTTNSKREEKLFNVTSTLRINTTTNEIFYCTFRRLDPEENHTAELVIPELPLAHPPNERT

B1: ABLPNB.03 (H12x41B02; anti-PD-L1 H12 in IgG form and anti-4-1BB 41B02 in scFv form) (bispecific antibody)
heavy: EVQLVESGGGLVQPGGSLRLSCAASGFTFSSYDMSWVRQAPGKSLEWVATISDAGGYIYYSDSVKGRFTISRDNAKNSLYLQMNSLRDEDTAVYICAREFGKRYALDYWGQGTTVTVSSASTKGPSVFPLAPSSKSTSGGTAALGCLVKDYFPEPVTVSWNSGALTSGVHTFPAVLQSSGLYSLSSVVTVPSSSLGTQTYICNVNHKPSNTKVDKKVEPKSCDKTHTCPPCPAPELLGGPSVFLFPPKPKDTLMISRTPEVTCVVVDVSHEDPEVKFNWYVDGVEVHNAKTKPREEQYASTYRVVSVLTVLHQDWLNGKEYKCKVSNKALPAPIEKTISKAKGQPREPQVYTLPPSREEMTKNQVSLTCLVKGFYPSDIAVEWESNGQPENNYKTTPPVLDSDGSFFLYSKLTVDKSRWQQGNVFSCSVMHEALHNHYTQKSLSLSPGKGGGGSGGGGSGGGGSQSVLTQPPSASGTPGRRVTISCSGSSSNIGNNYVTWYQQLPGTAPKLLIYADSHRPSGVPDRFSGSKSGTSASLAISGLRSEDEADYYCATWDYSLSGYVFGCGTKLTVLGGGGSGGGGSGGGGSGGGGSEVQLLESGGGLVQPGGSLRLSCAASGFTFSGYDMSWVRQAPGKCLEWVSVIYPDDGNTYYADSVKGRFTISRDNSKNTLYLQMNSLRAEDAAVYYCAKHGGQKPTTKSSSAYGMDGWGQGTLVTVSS
light: DIQMTQSPSSLSASVGDRVTITCKASQDVTPAVAWYQQKPGKAPKLLIYSTSSRYTGVPSRFSGSGSGTDFTFTISSLQPEDIATYYCQQHYTTPLTFGQGTKLEIKRTVAAPSVFIFPPSDEQLKSGTASVVCLLNNFYPREAKVQWKVDNALQSGNSQESVTEQDSKDSTYSLSSTLTLSKADYEKHKVYACEVTHQGLSSPVTKSFNRGEC
notes: IgG x scFv form, IgG1 N297A backbone
binding result [1]: binds | EC50 (read off the curve), NFkB-luc2/4-1BB Jurkat reporter with PD-L1 positive target cells [2]: ~100 pM

B2: ABLPNB.05 (B6x41B01.01; anti-PD-L1 B6 in IgG form and anti-4-1BB 41B01.01 in scFv form) (bispecific antibody)
heavy: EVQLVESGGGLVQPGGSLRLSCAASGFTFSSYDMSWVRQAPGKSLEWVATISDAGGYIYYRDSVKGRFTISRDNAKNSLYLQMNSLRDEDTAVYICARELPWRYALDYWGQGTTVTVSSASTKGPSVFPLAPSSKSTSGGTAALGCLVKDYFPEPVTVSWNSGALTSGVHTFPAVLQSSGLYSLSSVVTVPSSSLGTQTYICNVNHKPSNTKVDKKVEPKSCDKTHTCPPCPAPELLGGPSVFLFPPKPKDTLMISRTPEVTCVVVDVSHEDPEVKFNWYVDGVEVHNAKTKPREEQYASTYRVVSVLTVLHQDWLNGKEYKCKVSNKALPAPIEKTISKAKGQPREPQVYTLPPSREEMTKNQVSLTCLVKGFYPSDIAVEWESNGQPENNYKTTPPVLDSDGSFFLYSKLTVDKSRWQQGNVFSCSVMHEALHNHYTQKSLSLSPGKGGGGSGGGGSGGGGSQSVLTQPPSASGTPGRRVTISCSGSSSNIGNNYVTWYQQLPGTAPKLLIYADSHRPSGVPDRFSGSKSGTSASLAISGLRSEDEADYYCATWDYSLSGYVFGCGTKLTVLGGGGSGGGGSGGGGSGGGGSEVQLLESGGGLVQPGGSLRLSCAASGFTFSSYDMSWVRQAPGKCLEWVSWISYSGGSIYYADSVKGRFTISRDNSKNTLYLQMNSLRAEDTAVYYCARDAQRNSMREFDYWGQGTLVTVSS
light: DIQMTQSPSSLSASVGDRVTITCKASQDVTPAVAWYQQKPGKAPKLLIYSTSSRYTGVPSRFSGSGSGTDFTFTISSLQPEDIATYYCQQHYTTPLTFGQGTKLEIKRTVAAPSVFIFPPSDEQLKSGTASVVCLLNNFYPREAKVQWKVDNALQSGNSQESVTEQDSKDSTYSLSSTLTLSKADYEKHKVYACEVTHQGLSSPVTKSFNRGEC
notes: as for B1
binding result [3]: binds

B3: ABLPNB.01 (H12x41B01; anti-PD-L1 H12 in IgG form and anti-4-1BB 41B01 in scFv form) (bispecific antibody)
heavy: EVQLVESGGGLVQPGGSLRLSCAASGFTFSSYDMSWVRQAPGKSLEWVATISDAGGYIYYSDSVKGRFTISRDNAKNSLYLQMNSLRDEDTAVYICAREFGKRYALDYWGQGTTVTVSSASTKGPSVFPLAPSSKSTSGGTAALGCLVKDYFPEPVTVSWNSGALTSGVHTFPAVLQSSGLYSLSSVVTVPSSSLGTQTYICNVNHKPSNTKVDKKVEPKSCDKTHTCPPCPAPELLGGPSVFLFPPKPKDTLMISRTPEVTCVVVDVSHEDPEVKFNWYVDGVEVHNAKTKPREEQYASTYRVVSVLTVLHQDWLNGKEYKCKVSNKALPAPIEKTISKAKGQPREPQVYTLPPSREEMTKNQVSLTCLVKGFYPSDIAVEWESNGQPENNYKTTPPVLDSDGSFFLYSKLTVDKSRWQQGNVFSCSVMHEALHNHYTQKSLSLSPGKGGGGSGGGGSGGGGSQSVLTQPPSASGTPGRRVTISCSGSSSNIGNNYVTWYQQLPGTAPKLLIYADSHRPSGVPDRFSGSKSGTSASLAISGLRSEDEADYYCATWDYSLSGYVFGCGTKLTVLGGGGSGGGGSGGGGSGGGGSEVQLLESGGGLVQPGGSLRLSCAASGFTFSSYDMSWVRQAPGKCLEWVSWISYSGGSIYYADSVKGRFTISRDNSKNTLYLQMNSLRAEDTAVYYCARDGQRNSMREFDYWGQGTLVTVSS
light: DIQMTQSPSSLSASVGDRVTITCKASQDVTPAVAWYQQKPGKAPKLLIYSTSSRYTGVPSRFSGSGSGTDFTFTISSLQPEDIATYYCQQHYTTPLTFGQGTKLEIKRTVAAPSVFIFPPSDEQLKSGTASVVCLLNNFYPREAKVQWKVDNALQSGNSQESVTEQDSKDSTYSLSSTLTLSKADYEKHKVYACEVTHQGLSSPVTKSFNRGEC
notes: IgG x scFv form; The heavy component is the H12 heavy chain (IgG1 N297A), a linker, and the scFv (VL-linker-VH, disulfide VL103-VH44)
binding result [4]: binds | binding result [1]: binds

B4: ABLPNB.04 (B6x41B01; anti-PD-L1 B6 in IgG form and anti-4-1BB 41B01 in scFv form) (bispecific antibody)
heavy: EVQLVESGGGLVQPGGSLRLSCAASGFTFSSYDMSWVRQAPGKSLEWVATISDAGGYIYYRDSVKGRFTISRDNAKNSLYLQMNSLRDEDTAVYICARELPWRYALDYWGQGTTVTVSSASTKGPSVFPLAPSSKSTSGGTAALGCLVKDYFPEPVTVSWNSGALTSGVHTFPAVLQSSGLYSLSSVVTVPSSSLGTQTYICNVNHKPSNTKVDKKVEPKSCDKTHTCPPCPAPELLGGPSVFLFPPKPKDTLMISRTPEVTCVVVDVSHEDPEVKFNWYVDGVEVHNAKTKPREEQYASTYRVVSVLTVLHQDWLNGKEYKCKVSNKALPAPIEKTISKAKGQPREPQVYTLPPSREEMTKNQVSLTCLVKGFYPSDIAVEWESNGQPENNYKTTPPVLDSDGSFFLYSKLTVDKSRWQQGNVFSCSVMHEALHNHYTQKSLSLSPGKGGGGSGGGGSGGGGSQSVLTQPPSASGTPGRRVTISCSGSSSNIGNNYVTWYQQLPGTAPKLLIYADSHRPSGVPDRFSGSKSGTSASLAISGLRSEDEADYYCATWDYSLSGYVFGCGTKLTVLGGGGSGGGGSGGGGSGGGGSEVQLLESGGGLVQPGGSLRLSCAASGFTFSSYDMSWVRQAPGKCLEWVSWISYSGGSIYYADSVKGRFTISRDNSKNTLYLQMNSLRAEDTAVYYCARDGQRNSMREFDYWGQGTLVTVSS
light: DIQMTQSPSSLSASVGDRVTITCKASQDVTPAVAWYQQKPGKAPKLLIYSTSSRYTGVPSRFSGSGSGTDFTFTISSLQPEDIATYYCQQHYTTPLTFGQGTKLEIKRTVAAPSVFIFPPSDEQLKSGTASVVCLLNNFYPREAKVQWKVDNALQSGNSQESVTEQDSKDSTYSLSSTLTLSKADYEKHKVYACEVTHQGLSSPVTKSFNRGEC
notes: as for B1
EC50 (read off the curve) [5]: ~600 pM | binding result [4]: binds

B5: ABLPNB.06 (anti-PD-L1 B6 in IgG form and anti-4-1BB 41B01.02 in scFv form) (bispecific antibody)
heavy: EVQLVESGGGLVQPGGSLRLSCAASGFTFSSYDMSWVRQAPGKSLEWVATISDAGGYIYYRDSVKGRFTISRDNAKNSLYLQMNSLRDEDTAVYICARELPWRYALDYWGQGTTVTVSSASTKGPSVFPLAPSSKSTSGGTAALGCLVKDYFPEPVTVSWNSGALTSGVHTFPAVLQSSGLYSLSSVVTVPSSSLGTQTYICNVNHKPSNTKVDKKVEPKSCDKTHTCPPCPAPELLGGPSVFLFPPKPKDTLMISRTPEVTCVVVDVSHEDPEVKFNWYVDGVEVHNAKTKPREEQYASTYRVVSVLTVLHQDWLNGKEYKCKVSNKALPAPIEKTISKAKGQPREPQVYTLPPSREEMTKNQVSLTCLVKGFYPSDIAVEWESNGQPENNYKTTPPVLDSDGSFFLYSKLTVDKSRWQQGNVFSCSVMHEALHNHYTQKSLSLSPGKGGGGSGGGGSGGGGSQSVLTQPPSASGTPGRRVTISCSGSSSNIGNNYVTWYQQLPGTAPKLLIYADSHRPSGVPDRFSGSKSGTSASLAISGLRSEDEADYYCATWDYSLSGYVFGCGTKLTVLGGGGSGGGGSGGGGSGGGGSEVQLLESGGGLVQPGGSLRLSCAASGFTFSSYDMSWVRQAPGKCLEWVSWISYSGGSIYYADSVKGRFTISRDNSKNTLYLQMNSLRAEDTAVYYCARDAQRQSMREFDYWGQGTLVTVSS
light: DIQMTQSPSSLSASVGDRVTITCKASQDVTPAVAWYQQKPGKAPKLLIYSTSSRYTGVPSRFSGSGSGTDFTFTISSLQPEDIATYYCQQHYTTPLTFGQGTKLEIKRTVAAPSVFIFPPSDEQLKSGTASVVCLLNNFYPREAKVQWKVDNALQSGNSQESVTEQDSKDSTYSLSSTLTLSKADYEKHKVYACEVTHQGLSSPVTKSFNRGEC
notes: as for B1
binding result [6]: binds | binding result [3]: binds

B6: ABLPNB.07 (B6x41B01.03; anti-PD-L1 B6 in IgG form and anti-4-1BB 41B01.03 in scFv form) (bispecific antibody)
heavy: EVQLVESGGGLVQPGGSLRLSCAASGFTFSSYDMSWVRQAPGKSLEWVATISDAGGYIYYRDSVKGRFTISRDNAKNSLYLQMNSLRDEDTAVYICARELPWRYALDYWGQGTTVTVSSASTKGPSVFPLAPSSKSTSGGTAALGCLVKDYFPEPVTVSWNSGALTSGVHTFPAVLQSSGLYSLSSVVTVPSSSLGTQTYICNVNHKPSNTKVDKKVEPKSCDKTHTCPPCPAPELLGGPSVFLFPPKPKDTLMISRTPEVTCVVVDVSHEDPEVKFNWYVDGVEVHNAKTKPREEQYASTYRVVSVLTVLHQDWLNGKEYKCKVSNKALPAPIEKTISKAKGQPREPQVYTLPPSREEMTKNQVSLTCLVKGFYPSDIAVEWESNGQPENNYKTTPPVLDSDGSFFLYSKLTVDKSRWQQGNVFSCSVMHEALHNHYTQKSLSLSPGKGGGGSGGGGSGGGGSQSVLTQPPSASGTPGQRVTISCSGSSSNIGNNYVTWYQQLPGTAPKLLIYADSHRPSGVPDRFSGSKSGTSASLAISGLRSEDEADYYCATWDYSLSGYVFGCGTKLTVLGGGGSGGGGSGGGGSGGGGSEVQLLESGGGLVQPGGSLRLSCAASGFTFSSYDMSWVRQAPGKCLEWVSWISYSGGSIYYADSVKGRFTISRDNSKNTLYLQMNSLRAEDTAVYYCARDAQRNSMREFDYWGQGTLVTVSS
light: DIQMTQSPSSLSASVGDRVTITCKASQDVTPAVAWYQQKPGKAPKLLIYSTSSRYTGVPSRFSGSGSGTDFTFTISSLQPEDIATYYCQQHYTTPLTFGQGTKLEIKRTVAAPSVFIFPPSDEQLKSGTASVVCLLNNFYPREAKVQWKVDNALQSGNSQESVTEQDSKDSTYSLSSTLTLSKADYEKHKVYACEVTHQGLSSPVTKSFNRGEC
notes: as for B1
EC50 (read off the curve), NFkB-luc2/4-1BB Jurkat reporter with PD-L1 positive target cells [7]: ~60 pM | EC50 (read off the curve) [5]: ~900 pM | EC50 (read off the curve) [8]: ~200 pM

B7: ABLPNB.08 (B6x41B01.04; anti-PD-L1 B6 in IgG form and anti-4-1BB 41B01.04 in scFv form) (bispecific antibody)
heavy: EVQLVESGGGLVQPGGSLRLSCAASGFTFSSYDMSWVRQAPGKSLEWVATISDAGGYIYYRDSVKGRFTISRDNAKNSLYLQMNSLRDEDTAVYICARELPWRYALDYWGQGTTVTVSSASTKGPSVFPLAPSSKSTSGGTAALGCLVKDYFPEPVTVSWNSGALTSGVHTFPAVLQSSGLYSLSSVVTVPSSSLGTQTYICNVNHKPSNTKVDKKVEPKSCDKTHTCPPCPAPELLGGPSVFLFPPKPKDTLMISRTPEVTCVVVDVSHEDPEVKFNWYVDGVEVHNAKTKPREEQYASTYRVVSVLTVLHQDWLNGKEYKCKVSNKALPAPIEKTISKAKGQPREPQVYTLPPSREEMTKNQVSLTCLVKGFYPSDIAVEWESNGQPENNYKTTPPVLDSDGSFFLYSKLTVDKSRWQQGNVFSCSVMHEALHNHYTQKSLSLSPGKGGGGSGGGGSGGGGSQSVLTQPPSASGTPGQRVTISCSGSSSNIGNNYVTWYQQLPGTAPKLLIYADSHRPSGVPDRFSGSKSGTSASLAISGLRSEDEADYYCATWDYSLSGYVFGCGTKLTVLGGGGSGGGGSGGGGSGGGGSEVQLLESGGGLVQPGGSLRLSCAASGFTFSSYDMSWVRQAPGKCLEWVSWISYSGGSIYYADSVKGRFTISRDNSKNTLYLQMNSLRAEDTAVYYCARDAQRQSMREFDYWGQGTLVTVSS
light: DIQMTQSPSSLSASVGDRVTITCKASQDVTPAVAWYQQKPGKAPKLLIYSTSSRYTGVPSRFSGSGSGTDFTFTISSLQPEDIATYYCQQHYTTPLTFGQGTKLEIKRTVAAPSVFIFPPSDEQLKSGTASVVCLLNNFYPREAKVQWKVDNALQSGNSQESVTEQDSKDSTYSLSSTLTLSKADYEKHKVYACEVTHQGLSSPVTKSFNRGEC
notes: as for B1
EC50 (read off the curve), NFkB-luc2/4-1BB Jurkat reporter with PD-L1 positive target cells [7]: ~90 pM | binding result [3]: binds

B8: 41B01 (anti-4-1BB monoclonal antibody) (antibody, V domains shown)
VH: EVQLLESGGGLVQPGGSLRLSCAASGFTFSSYDMSWVRQAPGKGLEWVSWISYSGGSIYYADSVKGRFTISRDNSKNTLYLQMNSLRAEDTAVYYCARDGQRNSMREFDYWGQGTLVTVSS
VL: QSVLTQPPSASGTPGRRVTISCSGSSSNIGNNYVTWYQQLPGTAPKLLIYADSHRPSGVPDRFSGSKSGTSASLAISGLRSEDEADYYCATWDYSLSGYVFGGGTKLTVL
notes: Detected with anti-human IgG, so it was tested as a human IgG
EC50 (read off the curve) (human 4-1BB-Fc protein): ~80 pM | EC50 (read off the curve), NFkB-luc2/4-1BB Jurkat reporter, Fc-crosslinked antibody [9]: ~4000 pM | Kd [10]: 180 pM | koff [10]: 0.000119 s⁻¹ | kon [10]: 658000 M⁻¹ s⁻¹

B9: 41B02 (anti-4-1BB monoclonal antibody) (antibody, V domains shown)
VH: EVQLLESGGGLVQPGGSLRLSCAASGFTFSGYDMSWVRQAPGKGLEWVSVIYPDDGNTYYADSVKGRFTISRDNSKNTLYLQMNSLRAEDAAVYYCAKHGGQKPTTKSSSAYGMDGWGQGTLVTVSS
VL: QSVLTQPPSASGTPGRRVTISCSGSSSNIGNNYVTWYQQLPGTAPKLLIYADSHRPSGVPDRFSGSKSGTSASLAISGLRSEDEADYYCATWDYSLSGYVFGGGTKLTVL
notes: Detected with anti-human IgG
EC50 (read off the curve) (human 4-1BB-Fc protein): ~200 pM | Kd [10]: 1010 pM | koff [10]: 0.000603 s⁻¹ | kon [10]: 595000 M⁻¹ s⁻¹

B10: H12 (Hu1210-41; Hu1210 VH.4d x Hu1210 VK.1) (antibody, V domains shown)
VH: EVQLVESGGGLVQPGGSLRLSCAASGFTFSSYDMSWVRQAPGKSLEWVATISDAGGYIYYSDSVKGRFTISRDNAKNSLYLQMNSLRDEDTAVYICAREFGKRYALDYWGQGTTVTVSS
VL: DIQMTQSPSSLSASVGDRVTITCKASQDVTPAVAWYQQKPGKAPKLLIYSTSSRYTGVPSRFSGSGSGTDFTFTISSLQPEDIATYYCQQHYTTPLTFGQGTKLEIK
notes: also called WT (H12)
Kd [11]: 6120 pM | koff [11]: 0.000436 s⁻¹ | kon [11]: 71200 M⁻¹ s⁻¹

B11: B6 (anti-PD-L1 clone derived from Hu1210-41) (antibody, V domains shown)
VH: EVQLVESGGGLVQPGGSLRLSCAASGFTFSSYDMSWVRQAPGKSLEWVATISDAGGYIYYRDSVKGRFTISRDNAKNSLYLQMNSLRDEDTAVYICARELPWRYALDYWGQGTTVTVSS
VL: DIQMTQSPSSLSASVGDRVTITCKASQDVTPAVAWYQQKPGKAPKLLIYSTSSRYTGVPSRFSGSGSGTDFTFTISSLQPEDIATYYCQQHYTTPLTFGQGTKLEIK
Kd [11]: 4250 pM | koff [11]: 0.000418 s⁻¹ | kon [11]: 98300 M⁻¹ s⁻¹
